Entries after “also recorded” stand apart in the source; their conditions may differ.
Legend:
[1] = tested on: human pericyte cells; experiment: Anti-proliferative (cytotoxicity) test in human pericyte cells, cellular ATP; assay type: cell-based; conditions: with or without hPDGF-BB; FIGS. 14a and 14b
Method: Human pericyte cells were added to 50 μL of DMEM supplemented with 10% FBS and 1% penicillin/streptomycin, placed in a 96-well plate (CLS3595, Corning) and incubated overnight in 5% CO2 at 37° C. incubator. In each well containing 50 μL of cells, 50 μL of 50 anti-hPDGFR-β x cotinine scFv-Cκ-scFv fusion protein (25.6 pM-2 μM) complexed with cot-duo was added and incubated for 72 hours in 5% CO2 and 37° C. incubator.
To evaluate the effect of hPDGF-BB on the toxicity of the complex of the bispecific antibody of scFv-Cκ-scFv and cot-duo, hPDGF-BB (2 nM) was added together with 50 μL of the bispecific antibody scFv-Cκ-scFv and cot-duo complex. The mixed complexes were added to 50 μL of cell-containing solution. The bispecific antibody anti-mCD154 x cotinine scFv-Cκ-scFv was used as a control. Other experimental methods were carried out in the same manner as in the protocol of the anti-mPDGFR-β x cotinine scFv-Cκ-scFv fusion protein in Example 7.
In order to evaluate the toxicity of the anti-hPDGFR-β x cotinine scFv-Cκ-scFv fusion protein and cot-duo complexes, the complex was treated in human pericyte cells with or without hPDGF-BB, and the cells were […] to measure the relative viability. The toxicity of the bispecific antibody of anti-hPDGFR-β x cotinine scFv-Cκ-scFv fusion protein and cot-duo complex was shown by IC50 (Table 8).

[2] = biological target: T1, mPDGFR-β (Mus musculus, UniProt P05622); experiment: Cross-species enzyme immunoassay, mPDGFR-β; assay type: binding; conditions: 100 nM; FIG. 17
T1 construct: mPDGFR-β
T1 sequence (P05622 32-530): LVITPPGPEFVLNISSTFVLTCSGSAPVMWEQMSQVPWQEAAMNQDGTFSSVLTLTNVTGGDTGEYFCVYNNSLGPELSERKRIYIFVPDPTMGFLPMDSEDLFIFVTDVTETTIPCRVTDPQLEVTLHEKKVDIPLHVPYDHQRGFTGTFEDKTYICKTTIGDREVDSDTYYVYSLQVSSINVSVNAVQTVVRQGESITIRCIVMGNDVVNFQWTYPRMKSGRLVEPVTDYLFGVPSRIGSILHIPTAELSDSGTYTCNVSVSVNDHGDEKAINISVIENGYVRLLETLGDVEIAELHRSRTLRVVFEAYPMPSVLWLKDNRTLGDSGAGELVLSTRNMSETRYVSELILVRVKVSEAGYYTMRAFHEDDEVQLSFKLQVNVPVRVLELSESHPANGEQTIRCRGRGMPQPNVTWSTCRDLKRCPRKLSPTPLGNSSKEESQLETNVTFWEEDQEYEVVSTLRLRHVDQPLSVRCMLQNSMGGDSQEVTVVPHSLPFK
Method: (§1) 100 ng of hPDGFR-β, mPDGFR-β, rhesus PDGFR-β (90215-C02H, Sino Biological Inc. Beijing, China), cynomolgus monkey PDGFR-β, Sus scrofa PDGFR-β-Fc chimera or TNF-α receptor extracellular domain-human Fc fusion protein was coated with 4° C. temperature O/N. After blocking the wells, sequential culture of the anti-hPDGFR-β scFv-Cκ-scFv fusion protein and the HRP conjugated anti-human Cκ antibody was followed in the same manner as in Example 3.
(§2) FIG. 17 is a graph showing an experiment of the cross-species reaction of the bispecific antibody against the anti-hPDGFR-β antibody according to the present invention. On the microtiter plates coated with hPDGFR-β, mPDGFR-β, Rhesus PDGFR-β, Cynomolgus monkey PDGFR-β, Sus scrofa PDGFR-β and control Fc coated, the bispecific antibody containing anti-hPDGFR-β antibody according to the present invention (100 nM) was reacted and the amount of bound bispecific antibody was measured using HRP conjugated anti-human Cκ antibody and TMB.

[3] = biological target: T2, Rhesus PDGFR-β (Macaca mulatta, UniProt I0FLK2); experiment: Cross-species enzyme immunoassay, Rhesus PDGFR-β; assay type: binding; conditions: 100 nM; FIG. 17
T2 construct: Fc; purchased Sino Biological Inc. 90215-C02H
T2 sequence (I0FLK2 33-531 limits assumed): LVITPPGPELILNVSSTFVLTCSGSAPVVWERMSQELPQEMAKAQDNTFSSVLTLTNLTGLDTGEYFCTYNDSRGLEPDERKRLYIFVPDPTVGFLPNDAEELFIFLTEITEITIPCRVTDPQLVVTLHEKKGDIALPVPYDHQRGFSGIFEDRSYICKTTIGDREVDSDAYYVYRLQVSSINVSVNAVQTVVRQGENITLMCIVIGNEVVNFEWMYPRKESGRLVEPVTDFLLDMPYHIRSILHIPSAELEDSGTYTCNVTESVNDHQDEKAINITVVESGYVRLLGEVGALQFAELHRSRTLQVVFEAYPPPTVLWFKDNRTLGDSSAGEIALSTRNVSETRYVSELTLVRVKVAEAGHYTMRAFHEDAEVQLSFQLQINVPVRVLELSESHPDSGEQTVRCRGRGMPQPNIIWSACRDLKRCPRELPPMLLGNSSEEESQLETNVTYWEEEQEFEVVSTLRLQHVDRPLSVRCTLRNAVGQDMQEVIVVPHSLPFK
Method: as §1, §2

[4] = tested on: Cynomolgus monkey PDGFR-β; experiment: Cross-species enzyme immunoassay, Cynomolgus monkey PDGFR-β; assay type: binding; conditions: 100 nM; FIG. 17
Sequence of Cynomolgus monkey PDGFR-β (as listed by the source): as the sequence (I0FLK2 33-531 limits assumed) above
Method: as §1, §2

[5] = tested on: Sus scrofa PDGFR-β; experiment: Cross-species enzyme immunoassay, Sus scrofa PDGFR-β; assay type: binding; conditions: 100 nM; FIG. 17
Sequence of Sus scrofa PDGFR-β (as listed by the source): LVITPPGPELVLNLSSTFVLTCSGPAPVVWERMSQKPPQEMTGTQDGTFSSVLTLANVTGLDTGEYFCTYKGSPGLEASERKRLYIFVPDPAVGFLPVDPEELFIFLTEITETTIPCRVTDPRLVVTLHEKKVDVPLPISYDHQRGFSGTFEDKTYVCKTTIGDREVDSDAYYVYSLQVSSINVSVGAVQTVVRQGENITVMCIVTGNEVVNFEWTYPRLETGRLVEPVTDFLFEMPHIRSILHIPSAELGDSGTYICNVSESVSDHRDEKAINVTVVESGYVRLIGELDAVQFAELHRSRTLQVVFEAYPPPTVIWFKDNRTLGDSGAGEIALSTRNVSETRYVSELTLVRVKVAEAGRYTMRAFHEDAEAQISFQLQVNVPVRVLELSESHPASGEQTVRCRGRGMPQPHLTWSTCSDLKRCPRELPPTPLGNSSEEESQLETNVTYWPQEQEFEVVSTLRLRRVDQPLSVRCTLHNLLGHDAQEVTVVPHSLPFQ
Method: as §1, §2

[6] = biological target: T3, human pericyte cells expressing hPDGFR-β (Homo sapiens, UniProt P09619); experiment: Flow cytometry binding to human pericyte cells expressing hPDGFR-β; conditions: 100 nM antibody, FIG. 13b
T3 construct: host or cells: human pericyte cells
T3 sequence (P09619 33-1106): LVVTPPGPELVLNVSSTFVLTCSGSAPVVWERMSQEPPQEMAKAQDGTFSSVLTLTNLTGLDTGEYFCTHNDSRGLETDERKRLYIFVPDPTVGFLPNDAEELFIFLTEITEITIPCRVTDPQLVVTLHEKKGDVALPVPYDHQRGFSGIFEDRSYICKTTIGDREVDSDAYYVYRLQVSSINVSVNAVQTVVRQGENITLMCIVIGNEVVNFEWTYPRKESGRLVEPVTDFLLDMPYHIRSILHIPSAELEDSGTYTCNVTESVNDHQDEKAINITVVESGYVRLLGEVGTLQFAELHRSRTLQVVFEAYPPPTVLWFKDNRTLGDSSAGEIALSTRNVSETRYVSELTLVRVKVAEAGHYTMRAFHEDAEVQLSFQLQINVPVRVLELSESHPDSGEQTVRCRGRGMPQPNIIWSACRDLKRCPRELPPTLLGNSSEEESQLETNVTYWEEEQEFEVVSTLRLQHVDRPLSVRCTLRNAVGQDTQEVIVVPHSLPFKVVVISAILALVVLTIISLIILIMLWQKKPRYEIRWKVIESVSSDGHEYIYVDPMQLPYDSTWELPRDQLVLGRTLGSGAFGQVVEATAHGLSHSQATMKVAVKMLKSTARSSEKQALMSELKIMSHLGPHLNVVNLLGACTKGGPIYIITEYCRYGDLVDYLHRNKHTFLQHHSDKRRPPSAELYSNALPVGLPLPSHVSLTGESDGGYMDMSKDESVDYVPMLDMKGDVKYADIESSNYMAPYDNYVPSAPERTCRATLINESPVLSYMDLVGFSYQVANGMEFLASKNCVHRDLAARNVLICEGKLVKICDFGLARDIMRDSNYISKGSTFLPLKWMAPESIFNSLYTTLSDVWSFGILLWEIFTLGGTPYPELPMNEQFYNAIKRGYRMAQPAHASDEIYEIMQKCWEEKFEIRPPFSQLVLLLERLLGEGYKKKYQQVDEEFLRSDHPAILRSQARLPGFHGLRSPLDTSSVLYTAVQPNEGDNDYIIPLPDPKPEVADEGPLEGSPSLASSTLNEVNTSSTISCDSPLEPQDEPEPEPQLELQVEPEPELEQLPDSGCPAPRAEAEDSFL
Method: Human pericyte cells were cultured at 4° C. for 1 hour using the bispecific antibody of scFv-Cκ-scFv fusion protein (100 nM) under two different conditions with or without hPDGF-BB-biotin (100 nM, BT220; R&D systems). The cells were washed 4 times with flow cytometry buffer and cultured with allophycocyanin (APC)-anti-human Cκ antibody (clone TB28-2; BD Biosciences, San Jose, CA, USA) and streptavidin-phycoerythrin (PE) (12-4317-87; eBioscience, ThermoFisher). After washing, it was classified and analyzed with a FACS Canto II instrument (BD Biosciences, San Jose, CA, USA). 10,000 cells were used for each measurement, and the results were analyzed by FlowJo (Tree Star, Ashland, OR, USA).

[7] = biological target: PDGFR-β (Homo sapiens, UniProt P09619); experiment: Enzyme immunoassay on hPDGFR-β-Fc chimera coated plate; assay type: binding; parameters: made in house; conditions: 100 nM; FIG. 17
Sequence of PDGFR-β (P09619 33-531): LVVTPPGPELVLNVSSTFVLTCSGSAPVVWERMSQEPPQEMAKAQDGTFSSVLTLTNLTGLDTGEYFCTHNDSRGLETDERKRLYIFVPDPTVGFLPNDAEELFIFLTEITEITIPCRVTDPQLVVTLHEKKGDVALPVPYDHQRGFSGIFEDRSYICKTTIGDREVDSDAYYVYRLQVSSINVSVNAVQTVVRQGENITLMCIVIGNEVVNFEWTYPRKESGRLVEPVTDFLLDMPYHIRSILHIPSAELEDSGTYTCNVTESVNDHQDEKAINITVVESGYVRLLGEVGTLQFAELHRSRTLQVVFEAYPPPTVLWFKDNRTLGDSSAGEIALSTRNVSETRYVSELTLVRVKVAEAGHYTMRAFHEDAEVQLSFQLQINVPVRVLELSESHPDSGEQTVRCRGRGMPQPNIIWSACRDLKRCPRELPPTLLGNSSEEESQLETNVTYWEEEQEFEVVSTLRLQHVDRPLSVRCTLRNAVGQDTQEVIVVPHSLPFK
Method: 100 ng of hPDGFR-β-Fc chimera in the coating buffer or extracellular region of TNF-α receptor-human Fc fusion protein was coated on a microtiter plate at 4° C. O/N. Each well was blocked with 150 μL of 3% (w/v) BSA (bovine serum albumin) in PBS as a blocking agent at 37° C. for 1 hour. After treatment with various concentrations of bispecific antibodies of scFv-Cκ-scFv fusion protein (0.01 nM-1 μM), the analysis was performed in the same protocol of the concentration-dependent binding ability of anti-mPDGFRR-β scFv-Cκ-scFv fusion protein.
as §1

B1: PRb-CN26: anti-hPDGFR-β scFv clone (VH SEQ ID NO 55, VL SEQ ID NO 56), tested as scFv-Cκ-anti-cotinine scFv bispecific antibody (antibody, V domains shown)
VH: AVTLDESGGGLQTPGGGLSLVCKASGFTFSDRGIHWVRQAPGKGLEWVAGIGNTGSYTAYAPAVKGRATISRDNGQSTVRLQLNNLRAEDTATYYCAKRGFMDAGGIDAWGHGTEVIVSSTS
VL: LTQPSSVSANPGETVKITCSGGGSYAGSYYYGWYQQKSPGSAPVTVIYDNTNRPSNIPSRFSGSLSGSTDTLTITGVQAEDEAVYFCGGYDGISDTGIFGAGTTLTVL
modifications: VH of PRb-CN26; VL of PRb-CN26
toxicity of complex with cot-duo in human pericyte cells, comparison [1]: higher toxicity than control anti-mCD154 x cotinine scFv-Cκ-scFv; also recorded: highest cytotoxicity | cross-species binding, mPDGFR-β [2]: confirmed to bind | cross-species binding, Rhesus PDGFR-β [3]: confirmed to bind | cross-species binding, Cynomolgus monkey PDGFR-β [4]: confirmed to bind | cross-species binding, Sus scrofa PDGFR-β [5]: confirmed to bind | cell binding in the presence of hPDGF-BB-biotin [6]: able to bind to hPDGFR-β in the presence of hPDGF-BB-biotin | cross-species binding, hPDGFR-β [7]: confirmed to bind

B2: PRb-CN16: anti-hPDGFR-β scFv clone (VH SEQ ID NO 39, VL SEQ ID NO 40), tested as scFv-Cκ-anti-cotinine scFv bispecific antibody (antibody, V domains shown)
VH: AVTLDESGGGLQTPGTALSLVCKASGFTFSSFNMAWVRQAPGKGLEFVGEISNTAGSTFYAPAVKGRATISRDNGQSTVRLQLNNLRAEDTAIYYCAKAAGTCYSHSCTGYIDAWGHGTEVIVSSTS
VL: LTQPSSVSANPGETVKITCSGSSSSYGWYQQKSPGSAPVTLIYENNQRPSNIPSRFSGSKSGSTGTLTITGVQAEDEAVYYCGNADRSNSAGTFGAGTTLTVL
modifications: VH of PRb-CN16; VL of PRb-CN16
toxicity of complex with cot-duo in human pericyte cells, comparison [1]: higher toxicity than control anti-mCD154 x cotinine scFv-Cκ-scFv | cross-species binding, mPDGFR-β [2]: confirmed to bind | cross-species binding, Rhesus PDGFR-β [3]: confirmed to bind | cross-species binding, Cynomolgus monkey PDGFR-β [4]: confirmed to bind | cross-species binding, Sus scrofa PDGFR-β [5]: confirmed to bind | cell binding in the presence of hPDGF-BB-biotin [6]: able to bind to hPDGFR-β in the presence of hPDGF-BB-biotin | cross-species binding, hPDGFR-β [7]: confirmed to bind

B3: PRb-CN32: anti-hPDGFR-β scFv clone (VH SEQ ID NO 47, VL SEQ ID NO 48), tested as scFv-Cκ-anti-cotinine scFv bispecific antibody (antibody, V domains shown)
VH: AVTLDESGGGLQTPRGTLSLVCKASGFTFSSFNMFWVRQAPGKGLEFVAGISTTGRYTGYGSAVQGRGTISRDNGQSTVRLQLNNLRAEDTGTYYCAKSAGSTYSYWDSDAGLIDAWGHGTEVIVSSTS
VL: LTQPSSVSANLGETVKITCSGGSNAGSYYYGWYQQKSPGSAPVTVIYSNNQRPSDIPSRFSGSTSGSTSTLTITGVQVDDEAVYFCGSGDSSSIAAFGAGTTLTVL
modifications: VH of PRb-CN32; VL of PRb-CN32
toxicity of complex with cot-duo in human pericyte cells, comparison [1]: higher toxicity than control anti-mCD154 x cotinine scFv-Cκ-scFv; also recorded: highest cytotoxicity | cross-species binding, mPDGFR-β [2]: confirmed to bind | cross-species binding, Rhesus PDGFR-β [3]: confirmed to bind | cross-species binding, Cynomolgus monkey PDGFR-β [4]: confirmed to bind | cross-species binding, Sus scrofa PDGFR-β [5]: confirmed to bind | cell binding in the presence of hPDGF-BB-biotin [6]: able to bind to hPDGFR-β in the presence of hPDGF-BB-biotin | cross-species binding, hPDGFR-β [7]: confirmed to bind
